Where two headings read alike, the source gives them in different places.
Columns and labels:
[1] = target: GST-BRCA2 fragment B2-9 (amino acids 3189–3418) (UniProt P51587); assay: pull-down
[2] = target: GST-BRCA2 fragment B2-9 (amino acids 3189–3418) (UniProt P51587); assay: pull-down; remark: listed apart in the source

Sequence of UniProt P51587 (P51587 3189-3418): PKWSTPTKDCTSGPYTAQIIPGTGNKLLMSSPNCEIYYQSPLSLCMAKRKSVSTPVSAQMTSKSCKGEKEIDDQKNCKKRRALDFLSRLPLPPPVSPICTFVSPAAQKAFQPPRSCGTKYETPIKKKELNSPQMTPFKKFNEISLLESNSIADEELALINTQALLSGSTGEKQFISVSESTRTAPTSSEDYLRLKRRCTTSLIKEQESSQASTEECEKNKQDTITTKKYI

purified cyclin A (from UniProt P20248 1-432) (natural protein)
IC50 [1]: 29.5 nM | IC50 [2]: 28.5 nM
